Assays:
[1] = target: recombinant sponge (Eunapius subterraneus) DRG family regulatory protein 1, His-tagged (Eunapius subterraneus); assay: SEC; Superdex 200 Increase 10/300 GL, 10 mM phosphate buffer, 140 mM NaCl, pH 7.4, 4 °C; column calibrated with standards; fractions analysed by SDS-PAGE and anti-His Western blot
[2] = target: recombinant sponge (Eunapius subterraneus) developmentally regulated GTP-binding protein 1, His-tagged (Eunapius subterraneus)
[3] = target: T1, recombinant human DRG family regulatory protein 1, His-tagged (human, UniProt Q8WU90 1-426); assay: cross-linking; glutaraldehyde cross-linking of a mixture of DRG1 and DFRP1 (2 ug of each), or of DFRP1 alone, in PBS, 0.125-0.5% glutaraldehyde, 30 min, room temperature (25 °C); SDS-PAGE, Coomassie; conditions: both partners purified
T1 construct: human DFRP1 (LEREPO4/ZC3H15), cDNA from a commercially available product; also called HsaDFRP1; human DFRP1
T1 sequence (looked up): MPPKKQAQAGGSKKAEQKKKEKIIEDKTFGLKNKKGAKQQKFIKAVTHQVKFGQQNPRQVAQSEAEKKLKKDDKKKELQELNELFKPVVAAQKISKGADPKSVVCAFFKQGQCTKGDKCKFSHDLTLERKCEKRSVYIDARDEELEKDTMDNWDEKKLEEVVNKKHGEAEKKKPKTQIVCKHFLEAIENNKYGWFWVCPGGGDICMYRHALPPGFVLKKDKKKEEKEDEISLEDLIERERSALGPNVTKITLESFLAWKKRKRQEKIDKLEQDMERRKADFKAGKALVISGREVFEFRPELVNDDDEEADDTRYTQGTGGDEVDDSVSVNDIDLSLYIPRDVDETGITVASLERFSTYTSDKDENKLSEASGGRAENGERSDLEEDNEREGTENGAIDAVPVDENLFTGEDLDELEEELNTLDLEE

Sequence of recombinant sponge (Eunapius subterraneus) developmentally regulated GTP-binding protein 1, His-tagged (Eunapius subterraneus) (main, as listed by the source): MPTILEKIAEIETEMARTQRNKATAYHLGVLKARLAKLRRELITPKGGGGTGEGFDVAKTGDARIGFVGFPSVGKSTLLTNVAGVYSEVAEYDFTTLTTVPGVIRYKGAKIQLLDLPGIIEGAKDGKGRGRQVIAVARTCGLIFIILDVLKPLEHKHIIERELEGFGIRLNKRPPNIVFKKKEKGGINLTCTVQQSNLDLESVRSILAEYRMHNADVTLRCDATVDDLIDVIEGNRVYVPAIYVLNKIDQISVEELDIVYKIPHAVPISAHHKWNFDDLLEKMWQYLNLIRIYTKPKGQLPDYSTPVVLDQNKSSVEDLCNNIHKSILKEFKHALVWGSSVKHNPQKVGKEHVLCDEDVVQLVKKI

Question: With “recombinant sponge (Eunapius subterraneus) DRG family regulatory protein 1, His-tagged (natural protein)” as the molecule, how does the stoichiometry N [1] read?
Answer: 4

Question: And the GTPase activity of EsuDRG1 (GTPase-Glo luminescence assay) with equimolar EsuDFRP1, 1.2 uM each, against EsuDRG1 alone [2]?
Answer: 2.5 fold

B1: recombinant human developmentally regulated GTP-binding protein 1, His-tagged (natural protein, UniProt Q9Y295 1-367, looked up)
chain: MSSTLAKIAEIEAEMARTQKNKATAHHLGLLKARLAKLRRELITPKGGGGGGPGEGFDVAKTGDARIGFVGFPSVGKSTLLSNLAGVYSEVAAYEFTTLTTVPGVIRYKGAKIQLLDLPGIIEGAKDGKGRGRQVIAVARTCNLILIVLDVLKPLGHKKIIENELEGFGIRLNSKPPNIGFKKKDKGGINLTATCPQSELDAETVKSILAEYKIHNADVTLRSDATADDLIDVVEGNRVYIPCIYVLNKIDQISIEELDIIYKVPHCVPISAHHRWNFDDLLEKIWDYLKLVRIYTKPKGQLPDYTSPVVLPYSRTTVEDFCMKIHKNLIKEFKYALVWGLSVKHNPQKVGKDHTLEDEDVIQIVKK
notes: human DRG1, cDNA from a commercially available product; also called HsaDRG1; HsaDRG1-His
Question: Does B1 bind [3]?
Answer: binds

Reference: article PMC9256742, “Structure and function of cancer-related developmentally regulated GTP-binding protein 1 (DRG1) is conserved between sponges and humans” (Scientific Reports, 2022)
